From US8598081B2, “Specific delivery of agrochemicals” (priority 2010, dated 2013)

How the values were obtained:
gum arabic = experiment: VHH binding to gum arabic in ELISA; set-up: species or system acacia tree
Procedure: Titration of VHH antibody fragments was performed on ELISA plates (Maxisorp, Nunc) coated with 100 μl per well 100 μg/ml gum arabic in 50 mM carbonate pH 9.6. Plates were coated at 4° C. overnight and coating was continued at room temperature for 1 hour on the next day. Plates were washed three times with PBS/0.05%-TWEEN®-20 and blocked with 5% skimmed milk in PBS for 1 hour. Four-fold serial dilutions of purified VHH antibody fragments were prepared in 1% MPBS/0.05%-TWEEN®-20 in polypropylene 96-well plates. Antibody concentrations ranged from 3 μg/ml to 12 ng/ml. Antibody dilutions were transferred to the gum arabic-coated plates and VHH antibody fragments were allowed to bind for 1 hour at room temperature. Bound VHH were detected with sequential incubations with monoclonal mouse anti-histidine antibodies (Abd Serotec) and rabbit anti-mouse IgG whole molecule antibodies conjugated with alkaline phosphatase (RaM/AP) (Sigma) in 1% MPBS/0.05%-TWEEN®-20. Unbound antibodies were removed by washing three times with PBS/0.05%-TWEEN®-20 after each antibody incubation. The plates were washed an additional two times with PBS and 100 μl pNPP disodium hexahydrate substrate (Sigma) was added to each well. The absorbance at 405 nm was measured and plotted as function of antibody concentration (see Table 1).

potato lectin = target: T1, potato lectin (Solanum tuberosum, UniProt Q9S8M0); experiment: VHH binding to potato lectin in ELISA; conditions: Table 2; Blank (no antigen coating); VHH 3 μg/ml
T1 construct: purchased Sigma
T1 sequence (Q9S8M0 whole entry, looked up): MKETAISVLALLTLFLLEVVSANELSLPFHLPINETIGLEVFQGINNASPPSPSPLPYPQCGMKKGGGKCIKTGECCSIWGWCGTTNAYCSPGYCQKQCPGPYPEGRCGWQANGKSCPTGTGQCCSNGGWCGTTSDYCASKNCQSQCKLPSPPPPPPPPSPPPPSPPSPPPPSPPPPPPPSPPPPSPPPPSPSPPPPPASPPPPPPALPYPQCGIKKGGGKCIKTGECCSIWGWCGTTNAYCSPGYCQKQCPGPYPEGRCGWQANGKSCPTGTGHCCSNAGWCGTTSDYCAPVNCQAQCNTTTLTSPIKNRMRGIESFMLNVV
Procedure: ELISA plates (Maxisorp, Nunc) coated with 100 μl per well 100 μg/ml potato lectin (Sigma) in PBS were coated at 4° C. overnight and coating was continued at room temperature for 1 hour on the next day. Plates were washed three times with PBS/0.05%-TWEEN®-20 and blocked with 5% skimmed milk in PBS for 1 hour. VHH (3 μg/ml) were transferred to the potato lectin-coated plates and VHH antibody fragments were allowed to bind for 1 hour at room temperature. Bound VHH were detected with sequential incubations with monoclonal mouse anti-histidine antibodies (Abd Serotec) and rabbit anti-mouse IgG whole molecule antibodies conjugated with alkaline phosphatase (RaM/AP) (Sigma) in 1% MPBS/0.05%-TWEEN®-20. Unbound antibodies were removed by washing three times with PBS/0.05%-TWEEN®-20 after each antibody incubation. The plates were washed an additional two times with PBS and 100 μl pNPP disodium hexahydrate substrate (Sigma) was added to each well and the absorbance at 405 nm was measured (see Table 2).

[1] = test system: leaf surface of potato leaves; experiment: VHH binding to non-fixed leaf discs, potato; set-up: species or system potato (variety Desiree); conditions: 5 μg/ml, detection with anti-histidine Alexa-488
Procedure: VHH binding to non-fixed leaf discs of potato (variety Desiree), black nightshade, grass, wheat or azalea was investigated. For comparison, binding of CBM3a to non-fixed leaf discs of potato (variety Desiree) was analyzed in parallel. Leaf discs were prepared by punching a fresh potato leaf with a 5 mm belt hole puncher tool. Leaf discs were put immediately in wells of a 96-well plate containing 200 μl per well 5% MPBS or PBS, and incubated for 30 minutes. Leaf discs were transferred to solutions containing 5 μg/ml VHH antibody fragment, respectively, 5 μg/ml CBM3a in 2% MPBS or PBS and incubated for 60-90 minutes. Unbound VHH or CBM3a proteins were removed by washing three times with 2% MPBS or PBS. Bound VHH or CBM3a proteins were detected with incubation with monoclonal mouse anti-histidine antibodies directly conjugated with Alexa-488 fluorescent dye (Abd Serotec) in 1% MPBS for 1 hour. Unbound antibodies were removed by washing three times with PBS. Leaf discs were put on glass slides, covered with cover slips, and analyzed by microscopy or on a macrozoom microscope system (Nikon) or a SP5 confocal microscope system (Leica).

absorbance at 405 nm (gum arabic; Table 2, gum arabic coating, VHH 3 μg/ml): 0.530
absorbance at 405 nm (gum arabic; [VHH] 3 μg/ml (200 nM), gum arabic − (well without gum arabic)): 0.075
absorbance at 405 nm (potato lectin): 0.072
B1: VHH 5D4: VHH sequence; SEQ ID NO:20 by order of the list (protein, listed as Lama glama)
VHH: QVQLQESGGGLVQPGGSLRLSCAASGFDMRRFGIGWFRQVAGKEREGVSCSNVHDGTTYYTNDVKGRFTIVRDNTKNMLYLQMNKLRPEDTAVYSCATTDCEATAWGTYRGYFGQGTQVTVSS
modifications: 5D4
binding to native potato leaf surface (fluorescence microscopy) [1]: binding leaf surface, stomata, glandular trichomes, and leaf hairs
binding to native potato leaf surface (fluorescence microscopy) ([1]; listed as 5D4): clearly binding to trichomes, stomata and cuticle
